This note sets out measurements from patent US20190127480A1 (Regeneron, published 2019).

First the molecules themselves.
B1: H2M2775N (antibody, mouse IgG2, V domains shown)
VH: QVQLVESGGGVVQPGRSLRLSCAASGFTFRSFGMHWVRQAPGRGLEWVAMIYFDGKNKYYADSVRGRFTISRDNSKNTLYLEMSSLRAEDTAVYFCARGPGYNWLDPWGQGTLVTVSS
VL: EIVMTQSPATLSVSPGERVILSCRASQSISRNLAWYQQKPGQAPRLLIYGATTRATGVPARFSGSGSGTEFTLTISSLQSEDFAVFYCQQYNNRPLTFGGGTEVEIK
B2: H2M2689N (antibody, mouse IgG2, V domains shown)
VH: QVQLVESGGGVVQPGRSLRLSCAASGFTFSRKGMHWVRQAPVKGLEWVAVISYDGSNKYYADSVKGRFTISRDNSKNTLYLQMNSLTAEDTAVYYCAKEGGHDYGGTFDYWGQGTLVTVSS
VL: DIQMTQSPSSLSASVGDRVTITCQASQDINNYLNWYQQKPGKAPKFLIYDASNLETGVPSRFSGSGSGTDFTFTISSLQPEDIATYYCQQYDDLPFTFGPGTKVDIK
B3: H2M2690N (antibody, mouse IgG2, V domains shown)
VH: EVQLVESGGGLVQPGRSLRLSCAASGFTFDDYTMHWVRQAPGKGLEWVSGISWNSGSIGYADSVKGRFTISRDNAKKSLYLQMNSLRAEDTALYYCAKDNSGYGHYYYGMDVWGQGTTVTVAS
VL: EIVMTQSPATLSVSPGERATLSCRASQSVSSNLAWYQQKPGQAPRLLIYGASTRATGIPARFSGSGSGTEFTLTISSLQSEDFAVYYCQHYINWPLTFGGGTKVEIK
B4: H2M2708N (antibody, mouse IgG2, V domains shown)
VH: B1 VH
VL: B1 VL with I20T, T52S, Y87H
B5: H2M2707N (antibody, mouse IgG2, V domains shown)
VH: B1 VH with A23I, F32Y, R43K, F53Y, K56N, E82Q, S84N, E89D
VL: B3 VL with H90Q, I92N, W94R
B6: H2M2710N (antibody, V domains shown)
VH: B1 VH
VL: B1 VL with V19A, I20T, I29V, T52S, Y87H
B7: H2M2711N (antibody, V domains shown)
VH: B1 VH
VL: B1 VL with V19A, I20T, I29V, T52S, Y87H
B8: H1M2692N (antibody, mouse IgG1, V domains shown)
VH: EVQLVESGGGLVQPGGSLRLSCAASGFSFDDYTMHWVRQPPGKGLEWVSGISWNSGSIGYADSVKGRFTISRDNAKNSLYLQMNSLRAGDTALYYCAKDNSGYGYYYYYGMDVWGQGTTVTVSS
VL: B3 VL with H90Q, I92Y
B9: H2M2706N (antibody, mouse IgG2, V domains shown)
VH: B1 VH with F32Y, G33A, R43K, I51V, F53Y, K56N, K58Q, E82Q, S84N, E89D
VL: B3 VL with S31R, E70D, H90Q, I92N, E105V
B10: H1M2712N (antibody, mouse IgG1, V domains shown)
VH: B3 VH with R16G, S25T, Y32F, A61V, K77N, H105Y, A122S
VL: B3 VL with Q27H, S31R, L33S, V85I, H90Q, I92N
B11: H2M2705N (antibody, mouse IgG2, V domains shown)
VH: QVQLVESGGGVVQPGRSLRLACVASGFTFRSYGMHWVRQAPGKGLQWVAMIYYDGKNKYYADSVRGRFTISRDNSKNTLYLQMNNLRVEDTAMYFCARGPGYNWLDPWGQGTLVTVSS
VL: B3 VL with S28R, V29I, I58S, E70D, F83V, H90Q, Y91H, I92H
B12: H2M2774N (antibody, mouse IgG2, V domains shown)
VH: B11 VH with A21S, N85S, V88A
VL: B3 VL with S28R, V29I, I58S, F83V, H90Q, Y91H, I92N
B13: H2M2691N (antibody, mouse IgG2, V domains shown)
VH: B3 VH
VL: B3 VL
B14: H2M2779N (antibody, V domains shown)
VH: B3 VH with R16G, S25T, Y32F, A61V, K77N, H105Y, A122S
VL: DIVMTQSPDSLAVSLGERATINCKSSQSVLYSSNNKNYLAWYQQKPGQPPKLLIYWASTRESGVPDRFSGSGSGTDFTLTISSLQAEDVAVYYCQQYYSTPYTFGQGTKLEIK
B15: H2M2862N (antibody, mouse IgG2, V domains shown)
VH: B11 VH with A21S, V23A, Q46E, K56N, Y59K, N85S, M93V
VL: B3 VL with S31R, G57D, T72I, T74N, V85L, H90Q, I92S, K103E
B16: H2M2777N (antibody, mouse IgG2, V domains shown)
VH: B11 VH with A21S, V23I, Q46E, K56N, N85S, V88A, E89D, M93V
VL: B3 VL with H90Q, I92N, W94R
B17: H2M2778N (antibody, mouse IgG2, V domains shown)
VH: B8 VH with G16R, S28T, T33S, P40A, G56R, G59D, G89E, A97V, Y105R, T121S
VL: B3 VL with E1K, S31G, G57S, Y87F, I92Y, K107R
B18: H1H11803P2 (antibody, human IgG1, V domains shown)
VH: QVQLVESGGGVVQPGRSLRLSCAASGFTFSSYGMHWVRQAPGKGLEWVAVIWYDGNNKYYADSVKGRFTISRDNSKKTLYLQMTSLRAEDTAVYYCARDQYYDILTADNTLDYWGQGTLVTVSS
VL: DIQMTQSPSSLSASVGDSVTITCRASQSINNYLNWYQQKPGKAPKLLIYTASSLLSGVPSRFSGSGSGTDFTLTISGLHPEDFATYFCQQSFSTPPITFGQGTRLDIK
notes: human IgG1
B19: H1H11805P2 (antibody, human IgG1, V domains shown)
VH: EVQLVESGGGLVQPGGSLRLSCVVSGFTFNNYWMSWVRQAPGKGLEWVANIKKDGSEKYYVDSVKGRFTISRDNAKNSLYLQMNSLRAEDTAVYYCARDIMATIIDWGQGTLVTVSS
VL: B18 VL
notes: human IgG1
B20: H1H11808P2 (antibody, human IgG1, V domains shown)
VH: QVQLVESGGGVVQPGRSLRLSCAASGFPFNSYGMHWVRQAPGKGLEWVAVISYDGSNRYYADSVKGRFTISRDNSKYTLDLHVSSLTTDDTAVYYCARDRRYGKWEQLYPDYLGQGTLVTVSS
VL: B18 VL
notes: human IgG1
B21: H1H11804P2 (antibody, human IgG1, V domains shown)
VH: QVQLVESGGGVVQPGRSLRLSCAASGFTFISYGMHWVRQAPGKGLEWVAVISYDGSNKYYADSVKGRFTISRDNSKNTLFLQMNSLRAEDTAVYYCAKNYDFWNGYVGYYGMDVWGQGTTVTVSS
VL: B18 VL
notes: human IgG1
B22: H1H11835P2 (antibody, human IgG1, V domains shown)
VH: EVQLVESGGGLVQSGGSLRLSCEASGFTFSNYWMTWIRQGPGKGLEWVANIKPDGTENYYVDSVKGRFTISRDNARNSLYLQMTSLKAEDTAVYYCGRMIQFVINIWGQGTLVTVSS
VL: B18 VL
notes: human IgG1
B23: H1H11838P2 (antibody, human IgG1, V domains shown)
VH: QVQLVESGGGVVQPGRSLRLSCAASGFTFSSYGMHWVRQAPGKGLEWVAFMSYDGSNKFYSDSVKGRFTISRDNSRKMLFLQMNNLRAEDTAVYYCARDQYYDFLTDHGVFDYWGQGTLVTVSS
VL: B18 VL
notes: human IgG1
B24: H1H11836P2 (antibody, human IgG1, V domains shown)
VH: QVQLVESGGGVVQPGRSLRLSCAASGFTFRSYGMHWVRQAPGKGLEWVAFISYDESNKHQADSVKGRFTISRDNSKNTLYLQMNSLRAEDTAVYFCAKDQYYDFLTAYDTLDYWGQGTLVTVSS
VL: B18 VL
notes: human IgG1

Substitutions are numbered along the chain they refer to. Bounds are passed on as bounds.

The target in the first experiment is human CD3 expressed on cells (Jurkat cells; human T-cells of PBMC) (human, UniProt P09693 23-182; P20963 22-164). Kind of experiment: cell-based or functional assay.
Chain of human CD3 expressed on cells (Jurkat cells; human T-cells of PBMC) (chain, as listed by the source, chain 1 of 4): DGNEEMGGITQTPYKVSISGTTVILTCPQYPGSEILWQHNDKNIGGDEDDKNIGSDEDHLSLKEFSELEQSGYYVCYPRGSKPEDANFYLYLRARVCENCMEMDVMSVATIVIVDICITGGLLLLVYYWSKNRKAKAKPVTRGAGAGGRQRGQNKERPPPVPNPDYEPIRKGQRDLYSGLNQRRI
Chain of human CD3 expressed on cells (Jurkat cells; human T-cells of PBMC) (chain, as listed by the source, chain 2 of 4): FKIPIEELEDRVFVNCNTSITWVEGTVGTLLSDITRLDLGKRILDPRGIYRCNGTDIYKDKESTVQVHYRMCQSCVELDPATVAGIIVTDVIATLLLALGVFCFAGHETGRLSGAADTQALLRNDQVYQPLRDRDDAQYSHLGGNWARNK
Chain of human CD3 expressed on cells (Jurkat cells; human T-cells of PBMC) (P09693 23-182, chain 3 of 4): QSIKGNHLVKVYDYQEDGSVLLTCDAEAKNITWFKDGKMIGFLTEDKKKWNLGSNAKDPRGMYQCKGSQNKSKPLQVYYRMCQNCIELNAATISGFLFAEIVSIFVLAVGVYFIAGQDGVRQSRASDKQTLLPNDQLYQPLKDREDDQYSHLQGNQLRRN
Chain of human CD3 expressed on cells (Jurkat cells; human T-cells of PBMC) (P20963 22-164, chain 4 of 4): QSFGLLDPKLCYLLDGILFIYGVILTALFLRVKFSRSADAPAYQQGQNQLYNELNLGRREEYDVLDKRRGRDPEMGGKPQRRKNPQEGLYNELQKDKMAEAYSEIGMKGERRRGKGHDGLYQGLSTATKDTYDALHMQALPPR
B1: the “U937 Cytotoxicity Human T-cells” value worked out at 3.38 pM.

B2: the “U937 Cytotoxicity Human T-cells” value came to 0 pM.

Turning to B3, the “U937 Cytotoxicity Human T-cells” value was 27.9 pM.

Consider B4, for which the “U937 Cytotoxicity Human T-cells” value came out at 3.27 pM.

With B5, the “U937 Cytotoxicity Human T-cells” value came to 7.21 pM.

B6: the “U937 Cytotoxicity Human T-cells” value worked out at 3.97 pM.

Regarding B7, the “U937 Cytotoxicity Human T-cells” value came to 3.66 pM.

For the molecule B8, the “U937 Cytotoxicity Human T-cells” value came out at 359 pM.

B9: the “U937 Cytotoxicity Human T-cells” value amounted to 7.91 pM.

For B10, the “U937 Cytotoxicity Human T-cells” value is 314 pM.

B11: the “U937 Cytotoxicity Human T-cells” value was 1.73 pM.

Consider B12, for which the “U937 Cytotoxicity Human T-cells” value amounted to 2.46 pM.

On to B13, for which the “U937 Cytotoxicity Human T-cells” value is 23.4 pM.

For the molecule B14, the “U937 Cytotoxicity Human T-cells” value turned out to be 675 pM.

As to B15, the “U937 Cytotoxicity Human T-cells” value is 7.66 pM.

As for B16, the “U937 Cytotoxicity Human T-cells” value was 4.86 pM.

For B17, the “U937 Cytotoxicity Human T-cells” value amounted to 0 pM.

The target of the next experiment is T1, human PSMA expressed with an N-terminal hexahistidine tag (6h.hPSMA, R&D) (human, UniProt Q04609 44-750).
T1 construct: Bought soluble protein; also called soluble human PSMA; human PSMA protein
T1 sequence (Q04609 other isoform, or with tags, fused parts or gaps limits assumed): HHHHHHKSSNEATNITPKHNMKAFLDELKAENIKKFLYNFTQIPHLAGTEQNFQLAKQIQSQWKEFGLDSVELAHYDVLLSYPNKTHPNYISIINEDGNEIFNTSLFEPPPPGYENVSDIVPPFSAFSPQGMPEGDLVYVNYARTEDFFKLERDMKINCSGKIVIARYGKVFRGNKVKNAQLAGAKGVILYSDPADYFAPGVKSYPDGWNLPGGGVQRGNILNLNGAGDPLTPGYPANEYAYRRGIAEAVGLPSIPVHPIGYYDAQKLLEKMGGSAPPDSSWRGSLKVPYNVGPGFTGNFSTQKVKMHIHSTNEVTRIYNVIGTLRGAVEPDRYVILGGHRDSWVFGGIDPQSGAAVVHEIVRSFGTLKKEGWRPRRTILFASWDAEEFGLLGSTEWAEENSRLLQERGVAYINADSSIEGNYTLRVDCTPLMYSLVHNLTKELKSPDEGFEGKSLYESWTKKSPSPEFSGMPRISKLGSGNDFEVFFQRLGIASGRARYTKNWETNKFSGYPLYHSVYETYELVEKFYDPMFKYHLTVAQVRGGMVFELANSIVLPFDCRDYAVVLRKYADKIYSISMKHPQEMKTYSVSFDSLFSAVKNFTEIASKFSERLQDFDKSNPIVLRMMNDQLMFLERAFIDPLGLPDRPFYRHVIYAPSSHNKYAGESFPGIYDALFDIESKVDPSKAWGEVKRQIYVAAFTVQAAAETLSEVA
Nature of the experiment: SPR Biacore T-200, 37 C, antibody-capture (anti-human Fc), 6h.hPSMA as analyte. On the procedure: In this example, anti-PSMA antibodies were assessed for their ability to bind to human PSMA. […] Measurements were conducted on a Biacore™ T-200 instrument (GE Healthcare).
Briefly, a CM5 Biacore™ sensor surface was derivatized via amine coupling with a monoclonal mouse anti-human Fc antibody (GE, # BR-1008-39) or monoclonal goat anti-mouse Fc antibody (GE, # BR-1008-38) to capture purified anti-PSMA antibodies. Binding studies were performed in HBSP++ buffer composed of 0.01M HEPES, 0.15M NaCl, 2 mM Ca²⁺, 2 mM Mg²⁺, 0.05% v/v Surfactant P20, pH7.4. Varying concentrations of human PSMA expressed with an N-terminal hexahistidine tag (6h.hPSMA, R&D) prepared in HBSP++ running buffer (ranging from 50 to 0.78 nM, 4-fold dilutions) were injected over the anti-PSMA antibody captured surface at a flow rate of 30 μL/minute. Antibody-reagent association was monitored for 2 minutes while dissociation in HBSP++ running buffer was monitored for 8 minutes.
Kinetic association (kₐ) and dissociation (kd) rate constants were determined by fitting the real-time sensorgrams to a 1:1 binding model using Scrubber 2.0c curve fitting software. Binding dissociation equilibrium constants (KD) and dissociative half-lives (t½) were calculated from the kinetic rate constants as: KD (M)=kd/kₐ; and t_{1/2} (min)=(ln 2/(60*kd).
For orientation: SPR reads the build-up and loss of mass on a sensor chip optically.
B18: the Kd worked out at 1.33 nM, the koff worked out at 0.000608 s⁻¹, the kon worked out at 457000 M⁻¹ s⁻¹ and the “t1/2” value was determined as 19 min.

With B19, binding was characterised by a dissociation constant (Kd) of 75.6 nM, the koff was 0.00974 s⁻¹, the kon was 129000 M⁻¹ s⁻¹ and the “t1/2” value stood at 1.2 min.

Take B20: the Kd was at most 0.0563 nM, the koff is at most 1e-05 s⁻¹, the kon was found to be 178000 M⁻¹ s⁻¹ and the “t1/2” value was at least 1160 min.

With B21, binding was characterised by a dissociation constant (Kd) of 39.4 nM, the koff was 0.000801 s⁻¹, the kon was 20300 M⁻¹ s⁻¹ and the “t1/2” value amounted to 14.4 min.

In the case of B22, the equilibrium dissociation constant (Kd) was determined as 14 nM, the off-rate constant (koff) stood at 0.00246 s⁻¹, the kon worked out at 175000 M⁻¹ s⁻¹ and the “t1/2” value was determined as 4.7 min.

On to B23, for which the Kd stood at 1.99 nM, the koff is 0.000471 s⁻¹, the kon stood at 237000 M⁻¹ s⁻¹ and the “t1/2” value stood at 24.5 min.

In the case of B24, binding was characterised by a dissociation constant (Kd) of 0.855 nM, the off-rate constant (koff) is 0.00028 s⁻¹, the kon turned out to be 327000 M⁻¹ s⁻¹ and the “t1/2” value stood at 41.3 min.

What is called Kd is the free concentration of one partner at which half of the binding sites on the other are occupied at equilibrium, for simple one-to-one binding. By koff is commonly meant the rate constant with which the complex falls apart. Lower therefore signals a long-lived complex. What is called kon is the second-order rate constant of association.
